Where “and” joins values, the source holds several entries; their conditions need not be identical. Identical values can stand only once.
Tests used:
[1] = target: T1, 재조합 인간 BCMA-his 단백질 (Cat#BCA-H522Y, 아크로 바이오시스템즈) (human, UniProt Q02223 1-54, biotin-labelled in the capture ELISA and the benchmark-blocking ELISA); assay: competition ELISA: BCMA-his coated, antibody titrated, then biotin-labelled human BAFF-Fc 0.25 nM; competitor BAFF-Fc
T1 construct: Bought protein, MW 7.8 kDa as printed; not shown: his tag
T1 sequence: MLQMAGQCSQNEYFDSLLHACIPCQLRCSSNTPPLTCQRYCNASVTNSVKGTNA

[2] = target: T2, 사이노몰거스 원숭이 BCMA-Fc 단백질 (아크로 바이오시스템즈, Cat#BCA-C5253) (cynomolgus monkey, UniProt A0A2K5UD97 1-53); assay: SPR (Biacore T200), antibody captured on chip, cynomolgus BCMA-Fc in flow, 1:1 Langmuir fit
T2 construct: also called 사이노몰거스 BCMA-Fc; 사이노몰거스 BCMA; not shown: Fc tag
T2 sequence (A0A2K5UD97 entry or part of it): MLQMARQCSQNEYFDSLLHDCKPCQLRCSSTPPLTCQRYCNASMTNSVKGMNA

[3] = target: T1, 재조합 인간 BCMA-his 단백질 (Cat#BCA-H522Y, 아크로 …); assay: capture ELISA: antibody captured on plate, biotin-labelled human BCMA-his 0.28 nM in solution
[4] = target: T1, 재조합 인간 BCMA-his 단백질 (Cat#BCA-H522Y, 아크로 …); assay: SPR (Biacore T200), antibody captured on chip, human BCMA-his in flow, 1:1 Langmuir fit
[5] = target: T1, 재조합 인간 BCMA-his 단백질 (Cat#BCA-H522Y, 아크로 …); assay: competition ELISA: BM coated, antibody titrated and premixed with biotin-labelled human BCMA-his 0.22 nM; competitor BM
[6] = target: T3, 인간 골수종 세포주 U266 표면의 인간 BCMA (human, UniProt Q02223 1-184); assay: flow cytometry on U266 cells
T3 construct: whole, on cells; also called U266 세포; FACS 세포 결합
T3 sequence (looked up): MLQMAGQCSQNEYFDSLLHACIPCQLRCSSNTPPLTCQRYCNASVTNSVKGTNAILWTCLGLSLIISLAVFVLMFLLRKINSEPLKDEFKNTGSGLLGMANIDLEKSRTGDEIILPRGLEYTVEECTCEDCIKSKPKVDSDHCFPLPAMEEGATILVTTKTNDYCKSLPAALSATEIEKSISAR

[7] = target: T1, 재조합 인간 BCMA-his 단백질 (Cat#BCA-H522Y, 아크로 …); assay: competition ELISA: BM coated, antibody titrated and premixed with biotin-labelled human BCMA-his 0.22 nM; competitor BM (self)
[8] = target: T1, 재조합 인간 BCMA-his 단백질 (Cat#BCA-H522Y, 아크로 …); assay: SPR (Biacore), human BCMA
[9] = target: T1, 재조합 인간 BCMA-his 단백질 (Cat#BCA-H522Y, 아크로 …); assay: competition ELISA: BM coated, antibody titrated and premixed with biotin-labelled human BCMA-his; competitor BM (self)
[10] = target: T1, 재조합 인간 BCMA-his 단백질 (Cat#BCA-H522Y, 아크로 …); assay: capture ELISA with biotin-labelled human BCMA-his
[11] = target: T1, 재조합 인간 BCMA-his 단백질 (Cat#BCA-H522Y, 아크로 …); assay: competition ELISA: BCMA-his coated, antibody titrated, then biotin-labelled human BAFF-Fc; competitor BAFF-Fc
[12] = target: T2, 사이노몰거스 원숭이 BCMA-Fc 단백질 (아크로 바이오시스템즈, …); assay: SPR (Biacore), cynomolgus BCMA

B1: 마우스 항-BCMA 단일클론 항체 B1A1 (antibody, V domains shown)
VH: DVQLQESGPGLVKPSQSLSLTCSVTGYSITSAYYWNWIRQFPGNKLEWMGYIRYDGSNNYNPSLKNRISITRDTSKNQFFLKLNSVTAEDTATYYCAPYDYDEVFAYWGQGTLVTVSA
VL: DIVMTQSHKFMSTSVGDRVSITCKASQEVSTAVAWYQQKPGQSPKLLIYWASMRHTGVPDRFTGSGSGTDYTLIITSVQAEDLALYYCQQYYSTPLTFGAGTKLELK
Q: With B1 as the binder, how does the IC50 [1] read?
A: The IC50 was 7 nM.

Q: What about the Kd [2] of the same binder?
A: The Kd was 9.08 nM.

Q: What about the koff [2] of the same binder?
A: The koff was 0.0148 s⁻¹.

Q: What about the kon [2] of the same binder?
A: The kon was 1.63e+06 M⁻¹ s⁻¹.

Q: What about the EC50 [3] of the same binder?
A: The EC50 was 1.06 nM.

Q: And the Kd [4]?
A: Its Kd is 0.636 nM.

Q: And the koff [4]?
A: The koff was 0.00161 s⁻¹.

Q: And the kon [4]?
A: The kon was 2.45e+06 M⁻¹ s⁻¹.

Q: What about the IC50 [5] of the same binder?
A: Its IC50 is 1.91 nM.

Q: What about the EC50 [6] of the same binder?
A: Its EC50 is 2.66 nM.

B2: BCMA 벤치마크 (GSK2857916의 BCMA-결합 부분을 함유하는 항체) (antibody, human IgG1, kappa, V domains shown)
VH: QVQLVQSGAEVKKPGSSVKVSCKASGGTFSNYWMHWVRQAPGQGLEWMGATYRGHSDTYYNQKFKGRVTITADKSTSTAYMELSSLRSEDTAVYYCARGAIYDGYDVLDNWGQGTLVTVSS
VL: DIQMTQSPSSLSASVGDRVTITCSASQDISNYLNWYQQKPGKAPKLLIYYTSNLHSGVPSRFSGSGSGTDFTLTISSLQPEDFATYYCQQYRKLPWTFGQGTKLEIKR
notes: also called BM; BCMA-mab1
Q: With B2 as the binder, how does the IC50 [1] read?
A: The IC50 was 9.61 nM and 10.7 nM.

Q: And the IC50 [7]?
A: The IC50 was 1.93 nM and 2.64 nM.

Q: And the Kd [8]?
A: The Kd was 0.742 nM.

Q: What about the IC50 [9] of the same binder?
A: Its IC50 is 2.23 nM and 1.64 nM.

Q: What about the EC50 [3] of the same binder?
A: The EC50 was 1.27 nM and 1.11 nM.

Q: And the EC50 [10]?
A: Its EC50 is 0.71 nM and 0.93 nM.

Q: And the IC50 [11]?
A: Its IC50 is 3.64 nM and 3.59 nM.

Q: And the Kd [4]?
A: The Kd was 0.742 nM.

Q: And the koff [4]?
A: Its koff is 0.000245 s⁻¹.

Q: And the kon [4]?
A: The kon was 330000 M⁻¹ s⁻¹.

Q: And the Kd [12]?
A: Its Kd is 0.599 nM.
